Measurements reported in patent publication US10919943B2, “Mutant proteins enabling agrochemical control of plant gene expression” (The Regents of the University of California, priority 2016, dated 2021).

System: HAB1
Assay: Yeast two hybrid of pBD-PYR1 site saturation mutants with pACT-HAB1 on 10 μM ABA, β-galactosidase staining
Assay type: cell-based, Arabidopsis
Design: key: x: Mutations in PYR1 that disrupt ABA-induced binding to PYR1 to HAB1
Conditions: S. cerevisiae Y190, 10 μM ABA; dead = lack of visible staining in comparison to wild type control
From the text: To systematically identify mutations in PYR1 that disrupt its binding to HAB1, we utilized a collection of saturating mutations that contain all possible single amino acid substitutions in 24 conserved interface residues involved in binding HAB1, which was previously constructed for the purpose of engineering constitutively active ABA receptor variants (Mosquna et al., 2011). The interface residues previously mutagenized in this collection are the following: H60, F61, I62, K63, I84, S85, G86, L87, P88, A89, H115, R116, L117, P148, G150, N151, D154, D155, T156, M158, F159, T162, L166, K170. This set was made by mutagenizing a pBD-PYR1 template that encodes a GAL4-DNA binding domain fusion to PYR1, which can be used to assess receptor-HAB1 binding in S. cerevisiae strains co-transformed with pACT-HAB1, which expresses a GAL4 activation domain fusion to HAB1. Mutant pBD-PYR1 clones from the collection are maintained in S. cerevisiae strain Y190 co-transformed with pACT-HAB1. The test strains were spotted onto agar plates containing synthetic dextrose dropout media lacking leucine and tryptophan [SD (-Leu, -Trp)] medium supplemented with 10 μM ABA. After incubating the test plates at 30° C. for two days, colonies were chloroform lysed and stained to reveal […] expression levels and “dead” mutants were defined by lack of visible staining in comparison to a wild type control. This effort defined 237 mutations that disrupt ABA-induced binding of PYR1 to HAB1 (Table 1). Premade yeast drop out supplements (Clontech) were utilized in this and other examples for media preparation, amino acids and other standard chemicals were purchased from Sigma-Aldrich (USA). The naturally occurring (+)-ABA isomer was used in all experiments and purchased from Biosynth Ag (Switzerland).

Molecule	Mutations in PYR1 that disrupt ABA-induced binding to PYR1 to HAB1
H115V: PYR1 mutant (protein, UniProt O49686 1-191, looked up, variant H115V) Abscisic acid receptor PYR1: MPSELTPEERSELKNSIAEFHTYQLDPGSCSSLHAQRIHAPPELVWSIVRRFDKPQTYKHFIKSCSVEQNFEMRVGCTRDVIVISGLPANTSTERLDILDDERRVTGFSIIGGEVRLTNYKSVTTVHRFEKENRIWTVVLESYVVDMPEGNSEDDTRMFADTVVKLNLQKLATVAEAMARNSGDGSGSQVT	x
H115Y: PYR1 mutant (protein, UniProt O49686 1-191, looked up, variant H115Y) Abscisic acid receptor PYR1: MPSELTPEERSELKNSIAEFHTYQLDPGSCSSLHAQRIHAPPELVWSIVRRFDKPQTYKHFIKSCSVEQNFEMRVGCTRDVIVISGLPANTSTERLDILDDERRVTGFSIIGGEYRLTNYKSVTTVHRFEKENRIWTVVLESYVVDMPEGNSEDDTRMFADTVVKLNLQKLATVAEAMARNSGDGSGSQVT	x
H115F: PYR1 mutant (protein, UniProt O49686 1-191, looked up, variant H115F) Abscisic acid receptor PYR1: MPSELTPEERSELKNSIAEFHTYQLDPGSCSSLHAQRIHAPPELVWSIVRRFDKPQTYKHFIKSCSVEQNFEMRVGCTRDVIVISGLPANTSTERLDILDDERRVTGFSIIGGEFRLTNYKSVTTVHRFEKENRIWTVVLESYVVDMPEGNSEDDTRMFADTVVKLNLQKLATVAEAMARNSGDGSGSQVT	x
R116W: PYR1 mutant (protein, UniProt O49686 1-191, looked up, variant R116W) Abscisic acid receptor PYR1: MPSELTPEERSELKNSIAEFHTYQLDPGSCSSLHAQRIHAPPELVWSIVRRFDKPQTYKHFIKSCSVEQNFEMRVGCTRDVIVISGLPANTSTERLDILDDERRVTGFSIIGGEHWLTNYKSVTTVHRFEKENRIWTVVLESYVVDMPEGNSEDDTRMFADTVVKLNLQKLATVAEAMARNSGDGSGSQVT	x
R116P: PYR1 mutant (protein, UniProt O49686 1-191, looked up, variant R116P) Abscisic acid receptor PYR1: MPSELTPEERSELKNSIAEFHTYQLDPGSCSSLHAQRIHAPPELVWSIVRRFDKPQTYKHFIKSCSVEQNFEMRVGCTRDVIVISGLPANTSTERLDILDDERRVTGFSIIGGEHPLTNYKSVTTVHRFEKENRIWTVVLESYVVDMPEGNSEDDTRMFADTVVKLNLQKLATVAEAMARNSGDGSGSQVT	x
R116T: PYR1 mutant (protein, UniProt O49686 1-191, looked up, variant R116T) Abscisic acid receptor PYR1: MPSELTPEERSELKNSIAEFHTYQLDPGSCSSLHAQRIHAPPELVWSIVRRFDKPQTYKHFIKSCSVEQNFEMRVGCTRDVIVISGLPANTSTERLDILDDERRVTGFSIIGGEHTLTNYKSVTTVHRFEKENRIWTVVLESYVVDMPEGNSEDDTRMFADTVVKLNLQKLATVAEAMARNSGDGSGSQVT	x
R116D: PYR1 mutant (protein, UniProt O49686 1-191, looked up, variant R116D) Abscisic acid receptor PYR1: MPSELTPEERSELKNSIAEFHTYQLDPGSCSSLHAQRIHAPPELVWSIVRRFDKPQTYKHFIKSCSVEQNFEMRVGCTRDVIVISGLPANTSTERLDILDDERRVTGFSIIGGEHDLTNYKSVTTVHRFEKENRIWTVVLESYVVDMPEGNSEDDTRMFADTVVKLNLQKLATVAEAMARNSGDGSGSQVT	x
H115E: PYR1 mutant (protein, UniProt O49686 1-191, looked up, variant H115E) Abscisic acid receptor PYR1: MPSELTPEERSELKNSIAEFHTYQLDPGSCSSLHAQRIHAPPELVWSIVRRFDKPQTYKHFIKSCSVEQNFEMRVGCTRDVIVISGLPANTSTERLDILDDERRVTGFSIIGGEERLTNYKSVTTVHRFEKENRIWTVVLESYVVDMPEGNSEDDTRMFADTVVKLNLQKLATVAEAMARNSGDGSGSQVT	x
H115D: PYR1 mutant (protein, UniProt O49686 1-191, looked up, variant H115D) Abscisic acid receptor PYR1: MPSELTPEERSELKNSIAEFHTYQLDPGSCSSLHAQRIHAPPELVWSIVRRFDKPQTYKHFIKSCSVEQNFEMRVGCTRDVIVISGLPANTSTERLDILDDERRVTGFSIIGGEDRLTNYKSVTTVHRFEKENRIWTVVLESYVVDMPEGNSEDDTRMFADTVVKLNLQKLATVAEAMARNSGDGSGSQVT	x
R116V: PYR1 mutant (protein, UniProt O49686 1-191, looked up, variant R116V) Abscisic acid receptor PYR1: MPSELTPEERSELKNSIAEFHTYQLDPGSCSSLHAQRIHAPPELVWSIVRRFDKPQTYKHFIKSCSVEQNFEMRVGCTRDVIVISGLPANTSTERLDILDDERRVTGFSIIGGEHVLTNYKSVTTVHRFEKENRIWTVVLESYVVDMPEGNSEDDTRMFADTVVKLNLQKLATVAEAMARNSGDGSGSQVT	x
H115W: PYR1 mutant (protein, UniProt O49686 1-191, looked up, variant H115W) Abscisic acid receptor PYR1: MPSELTPEERSELKNSIAEFHTYQLDPGSCSSLHAQRIHAPPELVWSIVRRFDKPQTYKHFIKSCSVEQNFEMRVGCTRDVIVISGLPANTSTERLDILDDERRVTGFSIIGGEWRLTNYKSVTTVHRFEKENRIWTVVLESYVVDMPEGNSEDDTRMFADTVVKLNLQKLATVAEAMARNSGDGSGSQVT	x
R116S: PYR1 mutant (protein, UniProt O49686 1-191, looked up, variant R116S) Abscisic acid receptor PYR1: MPSELTPEERSELKNSIAEFHTYQLDPGSCSSLHAQRIHAPPELVWSIVRRFDKPQTYKHFIKSCSVEQNFEMRVGCTRDVIVISGLPANTSTERLDILDDERRVTGFSIIGGEHSLTNYKSVTTVHRFEKENRIWTVVLESYVVDMPEGNSEDDTRMFADTVVKLNLQKLATVAEAMARNSGDGSGSQVT	x
R116C: PYR1 mutant (protein, UniProt O49686 1-191, looked up, variant R116C) Abscisic acid receptor PYR1: MPSELTPEERSELKNSIAEFHTYQLDPGSCSSLHAQRIHAPPELVWSIVRRFDKPQTYKHFIKSCSVEQNFEMRVGCTRDVIVISGLPANTSTERLDILDDERRVTGFSIIGGEHCLTNYKSVTTVHRFEKENRIWTVVLESYVVDMPEGNSEDDTRMFADTVVKLNLQKLATVAEAMARNSGDGSGSQVT	x
H115G: PYR1 mutant (protein, UniProt O49686 1-191, looked up, variant H115G) Abscisic acid receptor PYR1: MPSELTPEERSELKNSIAEFHTYQLDPGSCSSLHAQRIHAPPELVWSIVRRFDKPQTYKHFIKSCSVEQNFEMRVGCTRDVIVISGLPANTSTERLDILDDERRVTGFSIIGGEGRLTNYKSVTTVHRFEKENRIWTVVLESYVVDMPEGNSEDDTRMFADTVVKLNLQKLATVAEAMARNSGDGSGSQVT	x
H115K: PYR1 mutant (protein, UniProt O49686 1-191, looked up, variant H115K) Abscisic acid receptor PYR1: MPSELTPEERSELKNSIAEFHTYQLDPGSCSSLHAQRIHAPPELVWSIVRRFDKPQTYKHFIKSCSVEQNFEMRVGCTRDVIVISGLPANTSTERLDILDDERRVTGFSIIGGEKRLTNYKSVTTVHRFEKENRIWTVVLESYVVDMPEGNSEDDTRMFADTVVKLNLQKLATVAEAMARNSGDGSGSQVT	x
R116Y: PYR1 mutant (protein, UniProt O49686 1-191, looked up, variant R116Y) Abscisic acid receptor PYR1: MPSELTPEERSELKNSIAEFHTYQLDPGSCSSLHAQRIHAPPELVWSIVRRFDKPQTYKHFIKSCSVEQNFEMRVGCTRDVIVISGLPANTSTERLDILDDERRVTGFSIIGGEHYLTNYKSVTTVHRFEKENRIWTVVLESYVVDMPEGNSEDDTRMFADTVVKLNLQKLATVAEAMARNSGDGSGSQVT	x
H115I: PYR1 mutant (protein, UniProt O49686 1-191, looked up, variant H115I) Abscisic acid receptor PYR1: MPSELTPEERSELKNSIAEFHTYQLDPGSCSSLHAQRIHAPPELVWSIVRRFDKPQTYKHFIKSCSVEQNFEMRVGCTRDVIVISGLPANTSTERLDILDDERRVTGFSIIGGEIRLTNYKSVTTVHRFEKENRIWTVVLESYVVDMPEGNSEDDTRMFADTVVKLNLQKLATVAEAMARNSGDGSGSQVT	x
R116A: PYR1 mutant (protein, UniProt O49686 1-191, looked up, variant R116A) Abscisic acid receptor PYR1: MPSELTPEERSELKNSIAEFHTYQLDPGSCSSLHAQRIHAPPELVWSIVRRFDKPQTYKHFIKSCSVEQNFEMRVGCTRDVIVISGLPANTSTERLDILDDERRVTGFSIIGGEHALTNYKSVTTVHRFEKENRIWTVVLESYVVDMPEGNSEDDTRMFADTVVKLNLQKLATVAEAMARNSGDGSGSQVT	x
H115C: PYR1 mutant (protein, UniProt O49686 1-191, looked up, variant H115C) Abscisic acid receptor PYR1: MPSELTPEERSELKNSIAEFHTYQLDPGSCSSLHAQRIHAPPELVWSIVRRFDKPQTYKHFIKSCSVEQNFEMRVGCTRDVIVISGLPANTSTERLDILDDERRVTGFSIIGGECRLTNYKSVTTVHRFEKENRIWTVVLESYVVDMPEGNSEDDTRMFADTVVKLNLQKLATVAEAMARNSGDGSGSQVT	x
